Reference: the DeepSol protein solubility set

Assay: soluble on expression in E. coli; label from the status in PepcDB or PDB records

Sequence	soluble on expression in E. coli
MGSDKIHHHHHHMASPGSGFWSFGSEDGSADPENPGTARAWCQVAQKFTGGIGNKLCALLYGDSGKPAEGGGSVTSRAATGKVACTCDQKPCNCPKGDVNYAFLHATDLLPACDGERPTLAFLQDVMNILLQYVVKSFDRSTKVIDFHYPNELLQEYNWELADQPQNLEEILTHCQTTLKYAIKTGHPRYFNQLSTGLDMVGLAADWLTSTANTNMFTYEIAPVFVLLEYVTLKKMREIIGWPGGSGDGIFSPGGAISNMYAMLIARYKMFPEVKEKGMAAVPRLIAFTSEHSHFSLKKGAAALGIGTDSVILIKCDERGKMIPSDLERRILEVKQKGFVPFLVSATAGTTVYGAFDPLLAVADICKKYKIWMHVDAAWGGGLLMSRKHKWKLSGVERANSVTWNPHKMMGVPLQCSALLVREEGLMQSCNQMHASYLFQQDKHYDLSYDTGDKALQCGRHVDVFKLWLMWRAKGTTGFEAHIDKCLELAEYLYTIIKNREGYEMVFDGKPQHTNVCFWFVPPSLRTLEDNEERMSRLSKVAPVIKARMMEYGTTMVSYQPLGDKVNFFRMVISNPAATHQDIDFLIEEIERLGQDL	not soluble
MFDAVKKIVLSYRVSPNRDTLSAIKAIDDVLRKLASLPDDLSFVVDGNPIYRLAQHFFAQHGISFDVRQVIGLTNEDPVSEEFRPLKQIIERFNRTFKGNYRPTHGFGAEEGSVSFVTLFVAYFNFLRPHSALEGRVPVVIPELADLPHMPARWTKLIAMAQAFLQQEAA	not soluble
MVEIVGHRAFKARYPENTLLAFEKAYAAGADVIETDLQMTSDGMVVVNHDSDTGRMWDKNLVIGESTWEEVKRLRCKEDGSLAMMTLKEILTWAVCHPGAKLMLDIKFTNEKIIMIKTFVIMLEVKNDLKFWQERITWGLWLLDWYDFGIETGVLKDFKVIVISLSLDIASQFVKRSLTLNDPHYKLFGISVHFVSSWTSQFRLRLLPVLMKNDIKVYLWTVNKPIDFKYLCELPIHGAITDDPIKARKLCDGHTVAKKPTAEKKFVAPSLASVDGLRFHAFIKVYNILCTLLYSKWVHIKLCGWSIAYVIFLFLRTIHFL	soluble
DKSPSSLTLALGKNIAGRPTVADLARMPHLLVAGTTGSGKSVAVNAMVLSLLFKASHNDLRMLMIDPKMLELSVYQGIPHLLAPVVTDMKEAANGLRWCVAEMERRYKLMSAVGVRNLAGFNKKVKDAEEAGQPLMDPLFKPNPDLSEVPRPLQKLPFIVIFIDEFADMMMIVGKKVEELIARLAQKARAAGIHLILATQRPSV	not soluble
MFHCKGLYMSDQNDKLKNLKTSSMDRRLSIAKASLLAGTRWATASATSMFSSEAEKEKKRKKAMTEQANYLVSEIGKLKGSIVKIGQMMALYGEHFLPEEITQALNTLNNQTVALAWPAIKAHLQEQLGSKLDDLIIDHEPIGTASLAQVHRATRKSDGLELVLKIQYPGVAEAIDSDMSLFKNMLKLTRMVPQTREFDQWFDEVREMMHREVSYDIEAATTRRFAERLKTDPRYAVPQIIDAYCTTKILCMTFERGVPINSPVMLSLPQERRNKLGEASLEIAVREIFEWGEMQTDPNFGNYLVRLGNGTDIQDKIVLLDFGAIRQFDEHLLSVARNLIRAGYNHSNEEMVRAMTGYSFFDSIPESIKPDMAKVFLLATEAFSCPENNPDMPTGLMDEDNRYDWKKSQLHSRVMQQASKSMASRYFSVPPKEFMFISRKFIGAYTFMTVIEAKTNVRRMISHFVK	soluble
MGSDKIHHHHHHMALEVVLWDFDGVIFDSMHLKNEGFRALFQKHGNKNQESLKQFEVYHYQSGGISRNEKIQYFYNEILKTPIAQEEVDALALEFGTIIEQKLFDREHLNSEVMAFIDKHYKNHVFHIASAALHSELQVLCEFLGIIKYFKSVEGSPPNKPKIIANIIQKYAYNPGRMLMIGDSVNDYESAQANEVAFLGYNSKVLKNLVGQNGYQGKYLESFKGFDLQNFIKE	not soluble
MSEEGFMLAVLKGIPLIQDIRAEGNSRSWIMTIDGHPARGEIFSEAFSISLFLNDLESLPKPCLAYVTLLLAAHPDVHDYAIQLTADGGWLNGYYTTSSSSELIAIEIEKHLALTCILKNVIRNHHKLYSGGV	not soluble
MSLTETLDNTQDLLMDVDKYNFWEVEGEDAAGEVNSKDMDMVGVDEKSGAPVFRLTDNNDEQPLNENENGNFKFKMNTIATENMAYLTEKDKYKLYPSKVPGYDNSREYSSYVSKVFELYNDLDEHRVYSAPTIGIINKSYAREHNYVLNVAFESFVTELNFFIESIKNDPNLINRVLQLEESITILNCLKTIHFTFDSLQNESDSREQFVNSLIDWVNRSDGEPKEEYIEQIFTRNDNIEVFNTLQFWKLVNKLLLRGLFEQALGCLERSKIMDFLKSQCEVSANILGDAIALLEQYPIDSSETFREWKFMVLGLQQTYSNSNTKITGELRDYIEDTLLLIGGNQSKLLQYSSTWYEAYASFYLYYIPTLELSHDYLELALSTHPLDLTKNWEQACVNIINNKIYSILPVLESLDLCTAATTAALCEAKGILENFLDDDTKTFKGNVDKLVTPVHGMASYLLNQFAFELCSQEEKTLWPVAIGLISISPFESASVKRTTISEVLPRFPFSTNDDIEWMLAVCAKWRLPKIAKKIYKILGSKLQAEGNVIESMTNFSKAGEFDIVKNEGHHHHHH	soluble
MSLNFEYIINSLLETIKTYNFFVDWEKIENNIKKIEKRLHILNYLIGKENFKEEFFELLKEYPEVITVFPILIAVRDNKITILNENMELETLEFKEKKYLTDEEIERYYKFFKETGLEDLLKNRKIKNLVDYVFGVEVGMDTNARKNRIGDLMENIVKKYIENLCKQNKNLDYIFQATKDKIKQKWGINLTLDKTNRKFDFAVFNKNTKKLYLIEVNFYSGGGSKLKATAGEYRSLNEFIKNNNNNVQFIWITDGKGWNTAKNPLKESFNSGVVILNLKMVKEGLLKEILTQEGHHHHHH	soluble
SLMQALARTGYAGPLSLEIFNDAFRAAPTEATAIDGLRSLIWIEELAEGAAWSEASPPAVGYDGVHFIEFTLDEESAAPLGEFFSALGFRHIGRHRSKNVELWHQGDIHLVLNFETDSFAHTFRLLHGTSVCAVGVRVNDLDSAVTRAAHYKAQWFRGPVGEGEMEIPALRGIEGSLVYLVDDAQAREMQWKTDFHLFEDGQDDDAGLINIDHISYVLPPTQLLSWLLFHRTVFGFDAGPEHEIADPHGMVVSQTVTSPDNSVRIPLTVSSARETLPGRFLSEHQGGVQQIAFASGDIFATIDAMLARGLPMLRIPANYYDDLAARFDLDDALLEAMRSRNILFDRNDDGDFFHAYTETFMGRFFFEVVERRGSYSQFGAVNAPIRLAAQAGQQREG	soluble
PVYMVYVSQDRLTPSAKHAVAKAITDAHRGLTGTQHFLAQVNFNEQPAGNVFLGGVQQGGDTIFVHGLHREGRSADLKGQLAQRIVDDVSVAAEIDRKHIWVYFGEMPAQQMVEYGRFLPQPGHEGEWFDNLSSDERAFMETNVDVSRT	soluble
MGSDKIHHHHHHMTERIRIGISSCLLGNKVRHDGGHKFDSYIVNVLGRYLDFVPVCPEVECGLPTPREPMRLAGDVHSPRLMTSKTWQDKTEQMQTWADSKVRELEGQGLCGFIFKRGSPSSGMERVKVYPFTDPREVKNVGAPVLKGSGLFARTFMEHFPLLPVEEEGRLNDPVLRENFIERLFVVRRWYDLLESGMAPGAVVEFHTRHKLLLLAHSTQKYREMGRLVAAVREYSPEQFRTEYRRLLMEALSVRATAGRHANVQQHIMGYFRRQLTTDEKQELVEIIDRYRNGLVPLIVPVTMLNHYVRKYGDEYLAGQYYLNPHPVELKLRNHI	not soluble
CSLIPDYQRPEAPVAAAYPQGQAYGQNTGAAAVPAADIGWREFFRDPQLQQLIGVALENNRDLRVAALNVEAFRAQYRIQRADLFPRIGVDGSGTRQRLPGDLSTTGSPAISSQYGVTLGTTAWELDLFGRLRSLRDQALEQYLATEQAQRSAQTTLVASVATAYLTLKADQAQLQLTKDTLGTYQKSFDLTQRSYDVGVASALDLRQAQTAVEGARATLAQYTRLVAQDQNALVLLLGSGIPANLPQGLGLDQTLLTEVPAGLPSDLLQRRPDILEAEHQLMAANASIGAARAAFFPSISLTANAGTMSRQLSGLFDAGSGSWLFQPSINLPIFTAGSLRASLDYAKIQKDINVAQYEKAIQTAFQEVADGLAARGTFTEQLQAQRDLVKASDEYYQLADKRYRTGVDNYLTLLDAQRSLFTAQQQLITDRLNQLTSEVNLYKALGGGWNQQTVTQQQTAKKEDPQAHHHHHH	soluble
MLVGLIGYGAIGKFLAEWLERNGFEIAAILDVRGEHEKMVRGIDEFLQREMDVAVEAASQQAVKDYAEKILKAGIDLIVLSTGAFADRDFLSRVREVCRKTGRRVYIASGAIGGLDAIFSASELIEEIVLTTRKNWRQFGRKGVIFEGSASEAAQKFPKNLNVAATLSIASGKDVKVRLVADEVEENIHEILVRGEFGEMEIRVRNRPMRENPKTSYLAALSVTRILRNLKEGLVV	soluble
MTLTRGSFTYSSGEEYTGEWKEGRRHGKGELKFADGTCYKGHFENGLFHGSGVLVFPDGSRYEGEFAQGKFQGVGIFSRFDGMKFEGEFKSGRVEGHGLLTFPDGSHGAPRNEGMFENNKLLKREKCQAVVQRAKNSASTARGLSV	soluble
KSIYLQSPYFIPDQSYINALKMAANSGVEVNLMIPCKPDHPFVYWATFSNAADLLDSGVNIYTYQNGFIHSKILMIDDEISSIGSANMDFRSFELNFEVNAFIYDEDIAKQLRQAFEKDIEQSKLLTKEVYDKR	not soluble
KDADVDITLIDRTNHHLFQPLLYQVATGILSSGEIAPQTRQVLAQQNNVHVLKAEVTDIDTESKTVVADLDDYSKTIEYDSLIVAAGAGQSYFGNDHFAEFAPGMKTIDDALELRARIIGAFERAEMCEDPKERERLLTFVIVGAGPTGVELAGQLAEMAHRTLSGEYTQFTPSNAKIILLDGAPQVLPPFGKR	not soluble
MGSDKIHHHHHHMNLKTSIENNVHIRAVAAAADELGLETYIVGGYVRDLIMDRDNKDIDFVCLGSGIELAQKVAANMGEHVQVHIFKTFGTAMINAGDTELEFVGARKESYDFNSRKPTVESGTLEDDQLRRDFTINALAICLNKARFGELVDPFDGVSDIKRKIIKTPQDALLTFSDDPLRMIRAVRFATQLNFDIEAATFQAIATNKDRLSIVSMERISQELNKIISAPVPSYGFKLLYISGVLKDIFPEFVALHGVESIDNKSHKDNFYHTLQVLDNVAKVSDDLWLRWAAILHDIAKPLTKRFVERIGWTFHGHEDKGARMVPAIFRKLRLPLNEKMDMVAKLVRLHLRPISLVKDEVTDSAVRRLMFEAGEHFSDLMILCRADVTSKNNNKVKRYLENFDKVERKVIEVEEKDQQRNFQPVVSGEDIMKTFDIKPGKVIGDIKADLIEAILEGDVQNEYEILFPFMINLAEKKYGLVKPETH	not soluble
MTVKIALLGFGTVASGVPFLLKENGGKINQSAHSDIKVAKVLVKDEDEKNRLLAAGNDFNFVTNVDDILSDQDITIVVELMGRIEPAKTFITRALEAGKHVVTANKDLLAVHGAELLEIAQANKVALYYEAAVAGGIPILRTLANSLASDKITRVLGVVNGTSNFMVTKMVEEGW	not soluble
MGHHHHHHSHMAFILCPLTCPGECEGSTGKLECCLCLPSQWAVLTAAPHPYRWSQEAGRVGEGKIGKTGRPRPRQNSLSSLHFWSPVVMCL	not soluble
